Publication PMC12509998

Tests used:
[1] = biological target: eukaryotic elongation factor 2 kinase (UniProt O00418)
[2] = biological target: eukaryotic elongation factor 2 kinase (UniProt O00418); remark: listed apart in the source

Sequence of eukaryotic elongation factor 2 kinase (O00418 whole entry): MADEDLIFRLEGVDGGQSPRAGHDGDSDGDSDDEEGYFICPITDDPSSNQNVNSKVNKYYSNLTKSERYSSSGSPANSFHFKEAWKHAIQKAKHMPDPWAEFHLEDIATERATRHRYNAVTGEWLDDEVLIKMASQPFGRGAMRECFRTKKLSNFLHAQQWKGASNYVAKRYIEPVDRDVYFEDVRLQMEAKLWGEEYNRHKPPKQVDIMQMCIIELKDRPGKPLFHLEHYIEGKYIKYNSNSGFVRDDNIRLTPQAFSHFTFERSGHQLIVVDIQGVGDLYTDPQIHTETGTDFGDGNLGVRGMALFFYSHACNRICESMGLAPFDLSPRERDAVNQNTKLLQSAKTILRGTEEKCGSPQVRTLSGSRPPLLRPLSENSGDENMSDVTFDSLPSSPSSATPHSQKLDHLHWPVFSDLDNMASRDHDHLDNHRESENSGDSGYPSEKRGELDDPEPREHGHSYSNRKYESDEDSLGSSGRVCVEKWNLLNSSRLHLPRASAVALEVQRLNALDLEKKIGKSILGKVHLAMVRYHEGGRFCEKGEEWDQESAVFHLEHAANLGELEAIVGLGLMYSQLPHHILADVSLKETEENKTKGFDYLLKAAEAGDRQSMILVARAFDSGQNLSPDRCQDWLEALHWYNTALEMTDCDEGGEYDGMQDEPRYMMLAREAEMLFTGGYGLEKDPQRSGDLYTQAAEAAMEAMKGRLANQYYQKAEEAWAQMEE

calmodulin, full-length (from UniProt P0DP23 1-149) (natural protein)
KCaM (concentration of CaM at half-maximal activity) of T348-phosphorylated eEF-2K toward 150 μM peptide substrate, 50 μM free Ca2+ [1]: 67 nM
KCaM^app of eEF-2K (0.5 nM) activity toward 5 μM yeast eEF-2, 50 μM free Ca2+ [2]: 121 nM

isolated C-terminal lobe of calmodulin (residues 76-148) (from UniProt P0DP23 77-149) (domain or fragment)
KCaM (concentration of CaMC at half-maximal activity) of T348-phosphorylated eEF-2K toward 150 μM peptide substrate, 50 μM free Ca2+ [1]: 85 nM
KCaM^app of eEF-2K (0.5 nM) activity toward 5 μM yeast eEF-2, 50 μM free Ca2+ [2]: 156 nM
